Reference: patent US20050015820A1

Legend:
[1] = biological target: melanocortin 3 receptor (MC3-R) (mouse) (UniProt P33033); assay: cell-based or functional assay
[2] = biological target: µ opioid receptor (MOP-R) (mouse) (UniProt P42866); assay: cell-based or functional assay
Sequence of µ opioid receptor (MOP-R) (mouse) (P42866 whole entry): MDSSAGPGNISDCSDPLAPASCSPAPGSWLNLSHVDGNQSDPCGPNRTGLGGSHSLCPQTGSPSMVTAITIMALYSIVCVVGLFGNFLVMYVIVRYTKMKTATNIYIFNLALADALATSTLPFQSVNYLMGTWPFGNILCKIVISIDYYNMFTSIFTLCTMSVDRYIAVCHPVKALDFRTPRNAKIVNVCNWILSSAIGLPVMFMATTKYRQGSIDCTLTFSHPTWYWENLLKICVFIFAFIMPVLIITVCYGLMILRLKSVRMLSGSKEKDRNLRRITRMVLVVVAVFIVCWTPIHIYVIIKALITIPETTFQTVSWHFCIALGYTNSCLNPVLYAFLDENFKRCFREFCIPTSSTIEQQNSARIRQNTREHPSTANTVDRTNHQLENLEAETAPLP

Sequence of melanocortin 3 receptor (MC3-R) (mouse) (P33033 whole entry): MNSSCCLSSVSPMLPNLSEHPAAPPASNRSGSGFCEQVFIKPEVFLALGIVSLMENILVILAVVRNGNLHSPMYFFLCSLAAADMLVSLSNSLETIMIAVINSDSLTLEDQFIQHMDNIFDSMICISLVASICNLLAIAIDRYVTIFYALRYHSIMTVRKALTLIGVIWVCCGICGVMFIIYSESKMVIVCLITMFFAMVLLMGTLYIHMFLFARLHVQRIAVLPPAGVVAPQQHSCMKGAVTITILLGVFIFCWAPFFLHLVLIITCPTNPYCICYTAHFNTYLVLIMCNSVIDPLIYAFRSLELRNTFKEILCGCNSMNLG

| hyperpolarization of POMC neurons (7 nM, 9 of 15 neurons) [1] [mV] | increase of the frequency of GABAergic IPSCs recorded from POMC neurons (7 nM, 3 of 4 neurons) [1] [%] | hyperpolarization of the membrane potential of POMC cells (Met-Enk 30 µM, whole cell recording, n=10) [2] [mV] | Substance |
| --- | --- | --- | --- |
| -5.5 | 280 |  | D-Trp^8-γMSH (peptide) |
|  |  | 10 to 20 | met-enkephalin (from UniProt P01210 100-104) (peptide) |
